Experimental findings from US20140031528A1 (NATIONAL UNIVERSITY CORPORATION UNIVERSITY OF TOYAMA, published 2014) are described below.

This assay addresses human insulin (human, UniProt P01308 25-54; P01308 90-110). Briefly: ELISA, recombinant antibodies from 293FT culture. Here is the method:
The full lengths of the guinea pig γ chain, κ chain, and λ chain gene expression units amplified in the above experiments were genetically introduced into 293FT cells and the cells were cultured for two days to bring about the secretion of recombinant guinea pig antibodies in the cell culture. The ability to bind human insulin of the recombinant guinea pig monoclonal antibodies obtained from the antigen specific and nonspecific plasma cells was examined by the ELISA method (FIG. 9).
On the technique in general: ELISA stands for enzyme-linked immunosorbent assay.

human insulin, sequence (P01308 25-54 limits assumed, chain 1 of 2): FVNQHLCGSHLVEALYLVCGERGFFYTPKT
human insulin, sequence (P01308 90-110 limits assumed, chain 2 of 2): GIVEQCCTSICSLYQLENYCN

B1: guinea pig monoclonal antibody to human insulin, Sample No. 5 (antibody, V domains shown)
VH: QVQLQESGPGLVKPSETLSLTCKVSGFSLMDYSVSWIRQAPGEGLEWIGVIWSSGSTDYNSTFKSRVGMSRDTSKSQVSITLRSLSSEDTAVYYCARAQYFDVWGAGTLVTVSS
VL: QIVLTQSPASLAASPGQKVTITCTASSSVNNNFFHWYQQKPGASPTLLIYRTSRLASGVPARFSGSGSGTSYSLTISSMEGEDVATYYCLQSNSYTFGAGTRLEIK
notes: Recombinant guinea pig IgG (γ/κ) secreted by 293FT cells
With B1, the binding result was “binds”.
